# Laboratory results: patent US20100009907A1, “Glucagon-Like Peptides and Uses Thereof” (AMYLIN PHARMACEUTICALS, INC., priority 2006, published 2010)
# Where no end group is shown, it is not given here.
# T1: GLP-1 receptor (endogenous, RINm5F cell membranes; rat thyroid carcinoma 6-23 clone 6 cells) (rat, UniProt P32301 22-463)
# T1 sequence (looked up): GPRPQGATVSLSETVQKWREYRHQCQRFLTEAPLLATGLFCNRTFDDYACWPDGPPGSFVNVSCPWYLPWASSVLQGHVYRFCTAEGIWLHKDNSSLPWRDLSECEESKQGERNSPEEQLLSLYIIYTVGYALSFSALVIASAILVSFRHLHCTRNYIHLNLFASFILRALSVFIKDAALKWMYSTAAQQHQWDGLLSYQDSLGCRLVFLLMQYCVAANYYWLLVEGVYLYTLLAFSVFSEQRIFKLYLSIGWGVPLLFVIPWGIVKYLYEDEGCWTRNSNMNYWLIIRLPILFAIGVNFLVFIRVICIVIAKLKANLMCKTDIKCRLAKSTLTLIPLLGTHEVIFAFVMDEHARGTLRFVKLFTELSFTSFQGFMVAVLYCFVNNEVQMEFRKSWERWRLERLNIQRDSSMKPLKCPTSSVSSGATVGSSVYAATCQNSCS
# Legend:
# [1] = molecular target: T1, GLP-1 receptor (endogenous, RINm5F cell …); assay: cell-based or functional assay
# [2] = molecular target: endogenous GLP-1, calcitonin, and GIP receptors of RINm5f cells; assay: cell-based or functional assay
# [3] = molecular target: T1, GLP-1 receptor (endogenous, RINm5F cell …); assay: displacement of [125I]GLP-1 from RINm5F cell membranes (GLP RBA)
# Method: GLP-1 receptor binding activity and affinity can be measured using a binding displacement assay in which the receptor source is RINm5F cell membranes, and the ligand is [¹²⁵I]GLP-1. Homogenized RINm5F cell membranes are incubated in 20 mM HEPES buffer with 40,000 cpm [¹²⁵I]GLP-1 tracer, and varying concentrations of test compound for 60 minutes at 23° C. with constant mixing. Reaction mixtures are filtered through glass filter pads presoaked with 0.3% PEI solution and rinsed with ice-cold phosphate buffered saline. Bound counts are determined using a scintillation counter. Binding affinities are calculated using GraphPad Prism software (GraphPad Software, Inc., San Diego, Calif.).
Binder,GLP-1 cAMP (6-23) EC50 [1],GLP/GIP/CT cAMP(RIN) EC50 [2],IC50 [3]
HAEGTYTNDVTEYLEEKAAKEFIEWLIKGKPK [SEQ ID NO 40],0.12 nM,,
HXEGTFTSDVTQQLDEKAAKEFIDWLIN (here or on the partner: dAla at position 2 (a = dAla)) [SEQ ID NO 8],,19 nM,
HXEGTYTNDVTEYLEEKAAKEFIEWL (dAla at position 2 (a = dAla)) [SEQ ID NO 45],34 nM,,
HAEGTYTNDVTEYLEEKAAKEFIEWLIGKPKKIRYS (also called nmGLP-1 analog) [SEQ ID NO 35],0.172 nM,,
HAEGTYTNDVTEYLEEKAAKEFIEWLIKGPKKIRYS (also called nmGLP-1 analog) [SEQ ID NO 36],0.086 nM,,
HAEGTFTSDVTQQLDEKAAKEFIDWLINGGPSKEIIS (also called nmGLP-1 analog) [SEQ ID NO 11],,0.59 nM,2.3 nM
HXEGTFTSDVTQQLDEKAAKEFIDWLINGGPSKEIIS (here or on the partner: dAla at position 2 (a = dAla)),,0.048 nM,
"HXEGTFTSDVTQQLDEKAAKEFIDWLINGGPSKEIIS (dAla at position 2 (a = dAla), also called nmGLP-1 analog)",,,1.9 nM
HXEGTYTNDVTEYLEEKAAKEFIEWLI (dAla at position 2 (a = dAla)) [SEQ ID NO 43],0.14 nM,,
HAEGTFTSDVTQQLDEKAAKEFIDWLINPGSEGIKSI (also called nmGLP-1 analog) [SEQ ID NO 14],2.2 nM,18 nM,
HAEGTFTSDVTQQLDEKAAKEFIDWLINGGPSKEIIS-OH (also called nmGLP-1 peptide; naturally occurring nmGLP-1) [SEQ ID NO 1],7.7 nM,1.9 nM,
HAEGTFTSDVTQQLDEKAAKEFIDWLINGGASKEIIS (also called nmGLP-1 analog) [SEQ ID NO 12],,0.29 nM,8.8 nM
HAEGTFTSDVTQQLDEKAAKEFIDALINGGPSKEIIS (also called nmGLP-1 analog) [SEQ ID NO 13],,196 nM,
HAEGTYTNDVTEYLEEKAAKEFIEWLI [SEQ ID NO 42],0.22 nM,,
HAEGTYTNDVTEYLEEKAAKEFIEW [SEQ ID NO 46],1940 nM,,
HAEGTYTNDVTEYLEEKAAKEFIEWL [SEQ ID NO 44],23 nM,,
YADAPYISDVYSYLQDQVAKKWLKSGQD (also called nmGLP-1 peptide; naturally occurring nmGLP-1) [SEQ ID NO 51],,971 nM,111 nM
HAEGTFTSDVTQQLEEKAAKEFIEWLIKGKPKKIRYS (also called nmGLP-1 analog) [SEQ ID NO 22],,0.1 nM,0.067 nM
HAEGTYTNDVTEYLEEKAAKEFIEWLIKGKPKKIRYS (also called nmGLP-1 peptide; naturally occurring nmGLP-1) [SEQ ID NO 2],0.82 nM,0.36 nM,
HGEGTYTNDVTEYLEEKAAKEFIEWLIKGKPKKIRYS (also called nmGLP-1 analog) [SEQ ID NO 26],0.16 nM,0.967 nM,
HAEGTFTSDVTQQLDEKAAKEFIDWLIN (also called nmGLP-1 analog) [SEQ ID NO 7],,4.7 nM,
HADGTYTSDVSSYLQDQAAKDFITWLKSGQPKPDAVET (also called nmGLP-1 peptide; naturally occurring nmGLP-1) [SEQ ID NO 48],2.34 nM,14 nM,
HADGTFTNDMTSYLDAKAARDFVSWLARSDKS (also called nmGLP-1 peptide; naturally occurring nmGLP-1) [SEQ ID NO 52],,382 nM,0.9 nM
HADGTYTSDVSSYLQDQAAKDFITWLKSGQPKPDAVETRSVDTL (also called nmGLP-1 peptide; naturally occurring nmGLP-1) [SEQ ID NO 49],,415 nM,74 nM

Binder,GLP-1 cAMP (6-23) EC50 [1],GLP/GIP/CT cAMP(RIN) EC50 [2],IC50 [3]
HAEGTFTNDMTNYLEEKAAKEFVGWLIKGRS (also called nmGLP-1 analog) [SEQ ID NO 6],,1.23 nM,
HAEGTYTNDVTEYLEEKAAKEFIEWLIN (also called nmGLP-1 analog) [SEQ ID NO 24],,0.85 nM,1.3 nM
HAEGTYTNDVTEYLEEKAAKEFIEWLIK (also called nmGLP-1 analog) [SEQ ID NO 25],,0.53 nM,0.54 nM
HXEGTYTNDVTEYLEEKAAKEFIEWLIKGKPKKIRYS (here or on the partner: dAla at position 2 (a = dAla)) [SEQ ID NO 23],,0.22 nM,
"HXEGTYTNDVTEYLEEKAAKEFIEWLIKGKPKKIRYS (Abu (2-Aminobutyric acid) at position 2, also called nmGLP-1 analog) [SEQ ID NO 28]",,,0.067 nM
HXEGTYTNDVTEYLEEKAAKEFIEWLIKGKPKKIRYS (here or on the partner: Aib (2-Aminoisobutyric acid) at position 2),,0.544 nM,
"HXEGTYTNDVTEYLEEKAAKEFIEWLIKGKPKKIRYS (Aib (2-Aminoisobutyric acid) at position 2, also called nmGLP-1 analog)",,,0.1 nM
EGTYTNDVTEYLEEKAAKEFIEWLIKGKPKKIRYS (also called nmGLP-1 analog) [SEQ ID NO 37],> 1000 nM,,
HAEGTYTNDVTQFLEEKAAKEFIDWLIKGKPKKQRLS [SEQ ID NO 50],,0.14 nM,
HXEGTYTNDVTQFLEEKAAKEFIDWLIKGKPKKQRLS (here or on the partner: dAla at position 2 (a = dAla)) [SEQ ID NO 54],,0.435 nM,
HXEGTYTNDVTQFLEEKAAKEFIDWLIKGKPKKQRLS (Abu (2-Aminobutyric acid) at position 2),0.12 nM,,
HXEGTYTNDVTQFLEEKAAKEFIDWLIKGKPKKQRLS (here or on the partner: Abu (2-Aminobutyric acid) at position 2),,0.146 nM,
HGEGTYTNDVTQFLEEKAAKEFIDWLIKGKPKKQRLS (also called nmGLP-1 analog) [SEQ ID NO 55],,0.576 nM,0.05 nM
HAEGTYTNDVTEYLEEKAAKEFIEWLIPKKIRYS (also called nmGLP-1 analog) [SEQ ID NO 32],8.3 nM,,
HAEGTYTNDVTEYLEEKAAKEFIEWLINGGPSKEIIS (also called nmGLP-1 analog) [SEQ ID NO 21],,1 nM,2.1 nM
HAEGTYTNDVTEYEEKAAKEFIEWLIKGKPKKIRYS (also called nmGLP-1 analog) [SEQ ID NO 38],104 nM,,42 nM
HAEGTYTNDVTEYLEKAAKEFIEWLIKGKPKKIRYS (also called nmGLP-1 analog) [SEQ ID NO 29],930 nM,,91 nM
HAEGTYTNDVTYLEEKAAKEFIEWLIKGKPKKIRYS (also called nmGLP-1 analog) [SEQ ID NO 41],220 nM,,9 nM
HAEGTYTNDTEYLEEKAAKEFIEWLIKGKPKKIRYS (also called nmGLP-1 analog) [SEQ ID NO 39],> 1000 nM,,61 nM
HAEGTYTNDVTEYLEEKAAKFIEWLIKGKPKKIRYS (also called nmGLP-1 analog) [SEQ ID NO 31],44 nM,,
HAEGTYTNDVTEYLEEAAKEFIEWLIKGKPKKIRYS (also called nmGLP-1 analog) [SEQ ID NO 30],> 1000 nM,,537 nM
HAEGTYTNDVTELEEKAAKEFIEWLIKGKPKKIRYS (also called nmGLP-1 analog) [SEQ ID NO 33],145 nM,,81 nM
HAEGTFTSDVTQQLDEKAAKEFIDWLINGGPSSGAPPPS [SEQ ID NO 9],,0.28 nM,
